Sequences and labels used below:
B1: CPEB3 Ribozyme (parent)
chain: GGGGGCCACAGCAGAAGCGUUCACGUCGCGGCCCCUGUCAGAUUCUGGUGAAUCUGCGAAUUCUGCUGU

In the data set the parent is B1. In words: self-cleavage, relative activity (ratio to wild type); higher = more cleavage; co-transcriptional.
As for GGGGGCCACAGCAGAAGCGUUCACGUCGCGGCCCCUGUCAGAUUCUGAUUAAUCUGCGAAUUCUGCUGU, the self-cleavage was determined as 0.988.

As for GGGGGCCACAGCAGAAGCGUUCACGUCGCGGCCCCUGUCAGAUUCUGAUCAAUCUGCGAAUUCUGCUGU, the self-cleavage was found to be 0.974.

With GGGGGCCACAGCAGAAGCGUUCACGUCGCGGCCCCUGUCAGAUUCUGAUAAAUCUGCGAAUUCUGCUGU, the self-cleavage is 0.985.

For the variant GGGGGCCACAGCAGAAGCGUUCACGUCGCGGCCCCUGUCAGAUUCUUGUGAAUCUGCGAAUCCUGCUGU, the self-cleavage came out at 0.912.

Turning to GGGGGCCACAGCAGAAGCGUUCACGUCGCGGCCCCUGUCAGAUUCUUGUGAAUCUGCGAAUGCUGCUGU, the self-cleavage was found to be 0.903.

On to GGGGGCCACAGCAGAAGCGUUCACGUCGCGGCCCCUGUCAGAUUCUUCUGAAUCUGCGAAUUCUGCUGU, for which the self-cleavage amounted to 1.02.

GGGGGCCACAGCAGAAGCGUUCACGUCGCGGCCCCUGUCAGAUUCUGAUGAAUCUACGAAUUCUGCUGU: the self-cleavage turned out to be 0.992.

GGGGGCCACAGCAGAAGCGUUCACGUCGCGGCCCCUGUCAGAUUCUGAUGAAUCUCCGAAUUCUGCUGU: the self-cleavage came to 0.949.

Turning to GGGGGCCACAGCAGAAGCGUUCACGUCGCGGCCCCUGUCAGAUUCUUGUGAAGCUGCGAAUUCUGCUGU, the self-cleavage came to 0.991.

With GGGGGCCACAGCAGAAGCGUUCACGUCGCGGCCCCUGUCAGAUUCUUGUGAACCUGCGAAUUCUGCUGU, the self-cleavage is 1.02.

As for GGGGGCCACAGCAGAAGCGUUCACGUCGCGGCCCCUGUCAGAUUCUUGUAAAUCUGCGAAUUCUGCUGU, the self-cleavage turned out to be 1.01.

Take GGGGGCCACAGCAGAAGCGUUCACGUCGCGGCCCCUGUCAGAUUCUUGUCAAUCUGCGAAUUCUGCUGU: the self-cleavage worked out at 1.

For the variant GGGGGCCACAGCAGAAGCGUUCACGUCGCGGCCCCUGUCAGAUUCUGAGGAAUCUGCGAAUUCUGCUGU, the self-cleavage was determined as 1.01.

On to GGGGGCCACAGCAGAAGCGUUCACGUCGCGGCCCCUGUCAGAUUCUGACGAAUCUGCGAAUUCUGCUGU, for which the self-cleavage came out at 0.959.

Regarding GGGGGCCACAGCAGAAGCGUUCACGUCGCGGCCCCUGUCAGAUUCUGAUGAAUCUGCGAAUUCUGCUGU, the self-cleavage was determined as 1.

As to GGGGGCCACAGCAGAAGCGUUCACGUCGCGGCCCCUGUCAGAUUCUUGUGAAUCUGCGAAUUCUGCCGU, the self-cleavage was 1.

In the case of GGGGGCCACAGCAGAAGCGUUCACGUCGCGGCCCCUGUCAGAUUCUGAUGUAUCUGCGAAUUCUGCUGU, the self-cleavage came to 0.989.

On to GGGGGCCACAGCAGAAGCGUUCACGUCGCGGCCCCUGUCAGAUUCUGAUGCAUCUGCGAAUUCUGCUGU, for which the self-cleavage worked out at 1.

Consider GGGGGCCACAGCAGAAGCGUUCACGUCGCGGCCCCUGUCAGAUUCUUGUGAAUCUACGAAUUCUGCUGU, for which the self-cleavage worked out at 0.966.

For the variant GGGGGCCACAGCAGAAGCGUUCACGUCGCGGCCCCUGUCAGAUUCUUGUGAAUCUCCGAAUUCUGCUGU, the self-cleavage worked out at 0.885.

GGGGGCCACAGCAGAAGCGUUCACGUCGCGGCCCCUGUCAGAUUCUUGUGAAUCUGCGAAUUCUCCUGU: the self-cleavage came to 0.736.

In the case of GGGGGCCACAGCAGAAGCGUUCACGUCGCGGCCCCUGUCAGAUUCUGAUGAAUCUGCGAUUUCUGCUGU, the self-cleavage stood at 0.516.

For the variant GGGGGCCACAGCAGAAGCGUUCACGUCGCGGCCCCUGUCAGAUUCUGAUGAAUCUGCGACUUCUGCUGU, the self-cleavage is 0.434.

Take GGGGGCCACAGCAGAAGCGUUCACGUCGCGGCCCCUGUCAGAUUCUGAUGAAUCUGCGAAUUCUCCUGU: the self-cleavage amounted to 0.81.

As for GGGGGCCACAGCAGAAGCGUUCACGUCGCGGCCCCUGUCAGAUUCUGAUGAAUCUGCGAAUUCUACUGU, the self-cleavage came out at 0.992.

For the variant GGGGGCCACAGCAGAAGCGUUCACGUCGCGGCCCCUGUCAGAUUCUGAUGAAUCUGCGAAUUCUUCUGU, the self-cleavage is 0.914.

Take GGGGGCCACAGCAGAAGCGUUCACGUCGCGGCCCCUGUCAGAUUCUGAUGAAUAUGCGAAUUCUGCUGU: the self-cleavage came out at 0.998.

Consider GGGGGCCACAGCAGAAGCGUUCACGUCGCGGCCCCUGUCAGAUUCUGAUGAAUUUGCGAAUUCUGCUGU, for which the self-cleavage amounted to 1.01.

Take GGGGGCCACAGCAGAAGCGUUCACGUCGCGGCCCCUGUCAGAUUCUGAUGAAUGUGCGAAUUCUGCUGU: the self-cleavage stood at 1.02.

Consider GGGGGCCACAGCAGAAGCGUUCACGUCGCGGCCCCUGUCAGAUUCUGAUGAAUCUGCGCAUUCUGCUGU, for which the self-cleavage worked out at 0.83.

With GGGGGCCACAGCAGAAGCGUUCACGUCGCGGCCCCUGUCAGAUUCUGAUGAAUCUGCGGAUUCUGCUGU, the self-cleavage was determined as 1.05.

For the variant GGGGGCCACAGCAGAAGCGUUCACGUCGCGGCCCCUGUCAGAUUCUGAUGAAUCUGCGUAUUCUGCUGU, the self-cleavage came out at 0.817.

For GGGGGCCACAGCAGAAGCGUUCACGUCGCGGCCCCUGUCAGAUUCUUGUGAAUCUGAGAAUUCUGCUGU, the self-cleavage came to 0.396.

On to GGGGGCCACAGCAGAAGCGUUCACGUCGCGGCCCCUGUCAGAUUCUUGUGAAUCUGGGAAUUCUGCUGU, for which the self-cleavage worked out at 0.311.

In the case of GGGGGCCACAGCAGAAGCGUUCACGUCGCGGCCCCUGUCAGAUUCUUGUGAAUCUGUGAAUUCUGCUGU, the self-cleavage amounted to 0.378.

Take GGGGGCCACAGCAGAAGCGUUCACGUCGCGGCCCCUGUCAGAUUCUUGUGAAUCUGCGAAUUCGGCUGU: the self-cleavage stood at 0.913.

With GGGGGCCACAGCAGAAGCGUUCACGUCGCGGCCCCUGUCAGAUUCUGAUGAAUCUGCGAAUUCUGCAGU, the self-cleavage came to 1.01.

In the case of GGGGGCCACAGCAGAAGCGUUCACGUCGCGGCCCCUGUCAGAUUCUGAUGAAUCUGCGAAUUCUGCCGU, the self-cleavage came out at 0.958.

Turning to GGGGGCCACAGCAGAAGCGUUCACGUCGCGGCCCCUGUCAGAUUCUGAUGAAUCUGCGAAUUCUGCGGU, the self-cleavage turned out to be 1.06.

As for GGGGGCCACAGCAGAAGCGUUCACGUCGCGGCCCCUGUCAGAUUCUUGUGAAUCUGCGAAAUCUGCUGU, the self-cleavage turned out to be 0.984.

On to GGGGGCCACAGCAGAAGCGUUCACGUCGCGGCCCCUGUCAGAUUCUUGUGAAUCUGCGAAGUCUGCUGU, for which the self-cleavage worked out at 0.906.

GGGGGCCACAGCAGAAGCGUUCACGUCGCGGCCCCUGUCAGAUUCUUGUGAAUCUGCCAAUUCUGCUGU: the self-cleavage turned out to be 0.963.

Turning to GGGGGCCACAGCAGAAGCGUUCACGUCGCGGCCCCUGUCAGAUUCUUGUGAAUCUGCUAAUUCUGCUGU, the self-cleavage was found to be 0.994.

Take GGGGGCCACAGCAGAAGCGUUCACGUCGCGGCCCCUGUCAGAUUCUUGUGAAUCUGCAAAUUCUGCUGU: the self-cleavage amounted to 0.946.

On to GGGGGCCACAGCAGAAGCGUUCACGUCGCGGCCCCUGUCAGAUUCUUGUGAAUAUGCGAAUUCUGCUGU, for which the self-cleavage was determined as 0.987.

Consider GGGGGCCACAGCAGAAGCGUUCACGUCGCGGCCCCUGUCAGAUUCUUGUGAAUUUGCGAAUUCUGCUGU, for which the self-cleavage turned out to be 1.05.

GGGGGCCACAGCAGAAGCGUUCACGUCGCGGCCCCUGUCAGAUUCUGAUGAAUCUGCGAAUUCGGCUGU: the self-cleavage was 0.902.

For GGGGGCCACAGCAGAAGCGUUCACGUCGCGGCCCCUGUCAGAUUCUGAUGAAUCUGCGAAUUCAGCUGU, the self-cleavage worked out at 0.946.

As for GGGGGCCACAGCAGAAGCGUUCACGUCGCGGCCCCUGUCAGAUUCUGAUGAAUCUGCGAAUUCCGCUGU, the self-cleavage worked out at 1.

For the variant GGGGGCCACAGCAGAAGCGUUCACGUCGCGGCCCCUGUCAGAUUCUGAUGAAUCUGCGAAUUCUGUUGU, the self-cleavage came out at 0.99.

GGGGGCCACAGCAGAAGCGUUCACGUCGCGGCCCCUGUCAGAUUCUGAUGAAUCUGCGAAUUCUGAUGU: the self-cleavage stood at 0.877.

For the variant GGGGGCCACAGCAGAAGCGUUCACGUCGCGGCCCCUGUCAGAUUCUGAUGAAUCUGCGAAUUCUGGUGU, the self-cleavage was found to be 0.942.

In the case of GGGGGCCACAGCAGAAGCGUUCACGUCGCGGCCCCUGUCAGAUUCUGAUGAAUCUGCGAAUGCUGCUGU, the self-cleavage came out at 0.868.

On to GGGGGCCACAGCAGAAGCGUUCACGUCGCGGCCCCUGUCAGAUUCUGAUGAAUCUGCGAAUCCUGCUGU, for which the self-cleavage worked out at 0.952.

With GGGGGCCACAGCAGAAGCGUUCACGUCGCGGCCCCUGUCAGAUUCUUGUGAAUCAGCGAAUUCUGCUGU, the self-cleavage was 0.961.

Take GGGGGCCACAGCAGAAGCGUUCACGUCGCGGCCCCUGUCAGAUUCUUGUGAAUCGGCGAAUUCUGCUGU: the self-cleavage was determined as 0.937.

For the variant GGGGGCCACAGCAGAAGCGUUCACGUCGCGGCCCCUGUCAGAUUCUGAUGAAUCUGGGAAUUCUGCUGU, the self-cleavage is 0.31.

Take GGGGGCCACAGCAGAAGCGUUCACGUCGCGGCCCCUGUCAGAUUCUGAUGAAUCUGUGAAUUCUGCUGU: the self-cleavage was 0.374.

Regarding GGGGGCCACAGCAGAAGCGUUCACGUCGCGGCCCCUGUCAGAUUCUGAUGAAUCUGCGAAUUCUGCUCU, the self-cleavage was found to be 0.98.

Turning to GGGGGCCACAGCAGAAGCGUUCACGUCGCGGCCCCUGUCAGAUUCUUGGGAAUCUGCGAAUUCUGCUGU, the self-cleavage amounted to 0.989.

On to GGGGGCCACAGCAGAAGCGUUCACGUCGCGGCCCCUGUCAGAUUCUGAUGAAUCUGCGAACUCUGCUGU, for which the self-cleavage came out at 0.852.

Take GGGGGCCACAGCAGAAGCGUUCACGUCGCGGCCCCUGUCAGAUUCUGAUGAAUCUGCGAAGUCUGCUGU: the self-cleavage worked out at 0.919.

For the variant GGGGGCCACAGCAGAAGCGUUCACGUCGCGGCCCCUGUCAGAUUCUGAUGAAUCUGCGAAAUCUGCUGU, the self-cleavage was determined as 0.957.

As to GGGGGCCACAGCAGAAGCGUUCACGUCGCGGCCCCUGUCAGAUUCUGAUGAAUCUGCGAAUUGUGCUGU, the self-cleavage was determined as 0.898.

Consider GGGGGCCACAGCAGAAGCGUUCACGUCGCGGCCCCUGUCAGAUUCUGAUGAAUCUGCGAAUUUUGCUGU, for which the self-cleavage came to 0.959.

For GGGGGCCACAGCAGAAGCGUUCACGUCGCGGCCCCUGUCAGAUUCUGAUGAAUCUGCGAAUUAUGCUGU, the self-cleavage was found to be 0.932.

Take GGGGGCCACAGCAGAAGCGUUCACGUCGCGGCCCCUGUCAGAUUCUGAUGAAUCGGCGAAUUCUGCUGU: the self-cleavage is 0.993.

GGGGGCCACAGCAGAAGCGUUCACGUCGCGGCCCCUGUCAGAUUCUGAUGAAUCCGCGAAUUCUGCUGU: the self-cleavage was 0.949.

For the variant GGGGGCCACAGCAGAAGCGUUCACGUCGCGGCCCCUGUCAGAUUCUGAUGAAUCUGCAAAUUCUGCUGU, the self-cleavage came to 0.961.

GGGGGCCACAGCAGAAGCGUUCACGUCGCGGCCCCUGUCAGAUUCUUGUGAAUCUGCGAAUUCUGCUGG: the self-cleavage turned out to be 1.05.

For GGGGGCCACAGCAGAAGCGUUCACGUCGCGGCCCCUGUCAGAUUCUUGUGAAUCUGCGAAUUCUGCUGA, the self-cleavage was determined as 1.02.

As for GGGGGCCACAGCAGAAGCGUUCACGUCGCGGCCCCUGUCAGAUUCUUGUGAAUCUGCGAAUUCUGCUGC, the self-cleavage came out at 1.06.

With GGGGGCCACAGCAGAAGCGUUCACGUCGCGGCCCCUGUCAGAUUCUGAUGACUCUGCGAAUUCUGCUGU, the self-cleavage is 0.975.

Take GGGGGCCACAGCAGAAGCGUUCACGUCGCGGCCCCUGUCAGAUUCUGAUGAGUCUGCGAAUUCUGCUGU: the self-cleavage amounted to 0.989.

On to GGGGGCCACAGCAGAAGCGUUCACGUCGCGGCCCCUGUCAGAUUCUGAUGAUUCUGCGAAUUCUGCUGU, for which the self-cleavage stood at 0.996.

In the case of GGGGGCCACAGCAGAAGCGUUCACGUCGCGGCCCCUGUCAGAUUCUUGUGAAUCUGCGAAUUCUGUUGU, the self-cleavage worked out at 1.02.

For the variant GGGGGCCACAGCAGAAGCGUUCACGUCGCGGCCCCUGUCAGAUUCUUGUGAAUCUGCGAAUUCUGAUGU, the self-cleavage worked out at 0.933.

Turning to GGGGGCCACAGCAGAAGCGUUCACGUCGCGGCCCCUGUCAGAUUCUUGUGAAUCUGCGAAUUCUGGUGU, the self-cleavage came out at 0.914.
